Data published in publication PMC6296734, “The CbrB Regulon: Promoter dissection reveals novel insights into the CbrAB expression network in Pseudomonas putida”.
Positions count from the first letter of the chain named.

T1: CbrB (Pseudomonas putida, UniProt A0ABM7EKZ2 1-480)
T1 sequence: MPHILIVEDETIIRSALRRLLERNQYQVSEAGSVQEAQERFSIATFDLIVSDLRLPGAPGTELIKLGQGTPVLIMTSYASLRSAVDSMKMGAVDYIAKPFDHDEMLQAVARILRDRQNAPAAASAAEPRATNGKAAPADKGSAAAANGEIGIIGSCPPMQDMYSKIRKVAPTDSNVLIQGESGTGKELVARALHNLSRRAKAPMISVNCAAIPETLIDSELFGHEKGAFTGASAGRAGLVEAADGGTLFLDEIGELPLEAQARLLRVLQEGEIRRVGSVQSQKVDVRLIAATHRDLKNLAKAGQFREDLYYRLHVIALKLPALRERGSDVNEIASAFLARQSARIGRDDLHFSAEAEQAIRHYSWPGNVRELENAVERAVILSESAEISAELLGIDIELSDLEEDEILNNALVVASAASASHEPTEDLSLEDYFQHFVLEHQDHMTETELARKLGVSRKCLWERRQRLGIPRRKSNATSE

B1: PcrcZ wt 72 bp (dsDNA)
DNA 1: TTCCCGTAAAAATCTGTTACCCAAGCTTTCCGCCGTAACAGTCCCCGAGGCGTACGGTAACGAAATTGCGACAT
DNA 2: TTATGTCGCAATTTCGTTACCGTACGCCTCGGGGACTGTTACGGCGGAAAGCTTGGGTAACAGATTTTTACGGG
B2: PcrcZ F1 mutant (dsDNA)
DNA 1: B1 DNA 1 with T15G, G16A, T17C, A19C, C20T
DNA 2: B1 DNA 2 with G57A, T58G, A60G, C61T, A62C
B3: PcrcZ R1 mutant (dsDNA)
DNA 1: B1 DNA 1 with G35T, T36G, A37C, A38T, C39A, A40C
DNA 2: TTATGTCGCAATTTCGTTACCGTACGCCTCGGGGACGTAGCAGGCGGAAAGCTTGGGTAACAGATTTTTACGG
B4: PcrcZ R2 mutant (dsDNA)
DNA 1: B1 DNA 1 with G57T, T58A, A59C, A60C, C61G, G62T
DNA 2: B1 DNA 2 with C15A, G16C, T17G, T18G, A19T, C20A
B5: PcrcY wt 72 bp (dsDNA)
DNA 1: TTGTGTGGGTGAAGTGTTACCTCCCGCACATTTCACAGCAAAAAATCGGGTAACAGGGAAACAAATCGGCAGAA
DNA 2: TTTTCTGCCGATTTGTTTCCCTGTTACCCGATTTTTTGCTGTGAAATGTGCGGGAGGTAACACTTCACCCACAC
B6: PcrcY R' mutant (dsDNA)
DNA 1: B5 DNA 1 with G50T, T51A, A52C, A53C, C54G, A55T
DNA 2: B5 DNA 2 with T22A, G23C, T24G, T25G, A26T, C27A
B7: PcrcY R2 mutant (dsDNA)
DNA 1: B5 DNA 1 with G58T, A59C, A60T, A61C, C62A, A63T
DNA 2: B5 DNA 2 with T14A, G15T, T16G, T17A, T18G, C19A
B8: PcrcY F1 mutant (dsDNA)
DNA 1: B5 DNA 1 with T15G, G16A, T17C, A19C, C20T
DNA 2: B5 DNA 2 with G57A, T58G, A60G, C61T, A62C

Experiments:
[1] = target: T1, CbrB; assay: EMSA; EMSA at room temperature; crcZ/crcY (5 nM): 35 mM Tris-acetate pH 7.9, 70 mM KAc, 20 mM NH4Ac, 2 mM MgAc2, 1 mM CaCl2, 1 mM DTT, 5% glycerol; others (1.5 nM) and footprint: 50 mM Tris-HCl pH 7.4, 50 mM KCl, 10 mM MgCl2, 0.1 mM EDTA, 1 mM DTT; plus 100 ng/ul salmon sperm DNA, 250 ng/ul BSA; details: protein: recombinant, tags: N-terminal His tag (pET-14b derived pMPO1229), label: 32P-dATP Klenow fill-in
[2] = target: T1, CbrB; assay: EMSA; not significantly affected; EMSA at room temperature; crcZ/crcY (5 nM): 35 mM Tris-acetate pH 7.9, 70 mM KAc, 20 mM NH4Ac, 2 mM MgAc2, 1 mM CaCl2, 1 mM DTT, 5% glycerol; others (1.5 nM) and footprint: 50 mM Tris-HCl pH 7.4, 50 mM KCl, 10 mM MgCl2, 0.1 mM EDTA, 1 mM DTT; plus 100 ng/ul salmon sperm DNA, 250 ng/ul BSA; details: protein: recombinant; tags: N-terminal His tag (pET-14b derived pMPO1229); label: 32P-dATP Klenow fill-in; 5' overhang 2 nt at both ends before fill-in
[3] = 5' overhang 2 nt at both ends before fill-in

Binder | binding result [1, 3] | other results
B1 | binds | –
B2 | no binding | –
B3 | – | binding result ([1]; 5' overhang 2 nt (one end 3 nt, reverse strand printed one G shorter) before fill-in): no binding
B4 | no binding | –
B5 | binds | –
B6 | – | binding result [2]: binds
B7 | – | binding result [2]: binds
B8 | no binding | –
